Reference: the RNAGym collection of RNA variant scans (doi:10.1073/pnas.2313332121)
Fewer inactive variants are shown than the library holds.

B1: TPR 5TU (parent)
chain: GGAUCUUCUCGAUCUAACAAAAAAGACAAAUCUGCCACAAAGCUUGAGAGCAUCUUCGGAUGCAGAGGCGGCAGCCUUCGGUGGCGCGAUAGCGCCAACGUUCUCAACUAUGACACGCAAAACGCGUGCUCCGUUGAAUGGAGUUUAUCAUG

Variants of: B1
Test: polymerase ribozyme fitness, log enrichment relative to wild type (log ratio); higher = more active; in vitro selection for triplet polymerase activity
Method in brief: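 Both subunits of a heterodimeric triplet polymerase ribozyme were given their own mutant library, built by PCR and transcribed. Each library was annealed with a biotinylated primer, the partner subunit and triplets, incubated frozen at −7 °C, and its extended constructs gel-excised, captured on streptavidin beads and amplified by RT-PCR, all in one round done in triplicate. Fitness is the logarithm of genotype enrichment relative to wild-type enrichment, with replicates averaged by inverse-variance weighting. That logarithm is base 2, and Illumina-sequenced genotypes needed ≥10 input reads and ≥1 read per output.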

Variant | polymerase ribozyme fitness (log ratio)
GGAUCUUCUCGAUCUAACAAAAAAGACAAAUCUGCCACAAAGCUUGAGAGCAUCUUCGGAUGCAGAGGCGGCAGCCUUCGGUGGCGCGAUAGCGCCAACGUUCUCAACUAUGACGCGCAAAACCCGUGCUCGGUUGUAUGGAGUUUAUCAUG | ≤ -4.2
GGAUCUUCUCGAUCUAACAAAAAAGACAAAUCUGCCACAAAGCUUGAGAGCAUCUUCGGAUGCAGAGGCGGCAGCCUUCGGUGGCGCGAUAGCGCCAACGUUCUCAACUAUGAUACGCAAAACGCGUGCUCCGUUGAACGGAGUUUAUCAUG | -3.63
GGAUCUUCUCGAUCUAACAAAAAAGACAAAUCUGCCACAAAGCUUGAGAGCAUCUUCGGAUGCAGAGGCGGCAGCCUUCGGUGGCGCGAUAGCGCCAACGUUCUCAACUAUGAAACGCAAAACGCGUGCUCUCUUGAAUGGAGUUUAUCAUG | -3.96
GGAUCUUCUCGAUCUAACAAAAAAGACAAAUCUGCCACAAAGCUUGAGAGCAUCUUCGGAUGCAGAGGCGGCAGCCUUCGGUGGCGCGAUAGCGCCAACGUUCUCAACUAUGACAAGCAAAACGCGUGCUCCGUUGAAUGGAGUUUACCAUG | -3.09
GGAUCUUCUCGAUCUAACAAAAAAGACAAAUCUGCCACAAAGCUUGAGAGCAUCUUCGGAUGCAGAGGCGGCAGCCUUCGGUGGCGCGAUAGCGCCAACGUUCUCAACUAUGAUACGCAAAACCCGUGCUCCGUUGAAUGGAGUUUAUCAUG | -4.11
GGAUCUUCUCGAUCUAACAAAAAAGACAAAUCUGCCACAAAGCUUGAGAGCAUCUUCGGAUGCAGAGGCGGCAGCCUUCGGUGGCGCGAUAGCGCCAACGUUCUCAACUAUGAUACGCAAAACUCGUGCUCCGUUGAAUGGAGUUUAUCAUG | -3.13
GGAUCUUCUCGAUCUAACAAAAAAGACAAAUCUGCCACAAAGCUUGAGAGCAUCUUCGGAUGCAGAGGCGGCAGCCUUCGGUGGCGCGAUAGCGCCAACGUUCUCAACUAUGAUACGCAAAGCGCGUGCUCCGUUGAAUGGAGUUUAUCAUG | -1.87
GGAUCUUCUCGAUCUAACAAAAAAGACAAAUCUGCCACAAAGCUUGAGAGCAUCUUCGGAUGCAGAGGCGGCAGCCUUCGGUGGCGCGAUAGCGCCAACGUUCUCAACUAUGACAGGCAAAACCCGUGCUCCGUUGAAUGGAGUUUACCAUG | ≤ -4.2
GGAUCUUCUCGAUCUAACAAAAAAGACAAAUCUGCCACAAAGCUUGAGAGCAUCUUCGGAUGCAGAGGCGGCAGCCUUCGGUGGCGCGAUAGCGCCAACGUUCUCAACUAUGAAACGCAAAACGCGUGCUCCGUUGAAUAGAGUUUAGCAUG | ≤ -4.2
GGAUCUUCUCGAUCUAACAAAAAAGACAAAUCUGCCACAAAGCUUGAGAGCAUCUUCGGAUGCAGAGGCGGCAGCCUUCGGUGGCGCGAUAGCGCCAACGUUCUCAACUAUGACAAGCAAAACGCGUGCUCCGUUGAAUUGAGUUUAUCAUG | -4.02
GGAUCUUCUCGAUCUAACAAAAAAGACAAAUCUGCCACAAAGCUUGAGAGCAUCUUCGGAUGCAGAGGCGGCAGCCUUCGGUGGCGCGAUAGCGCCAACGUUCUCAACUAUGUCAUGCAAAACGCGUGCUCCGUUGAAUGGAGUUUAUCAUG | -1.33
GGAUCUUCUCGAUCUAACAAAAAAGACAAAUCUGCCACAAAGCUUGAGAGCAUCUUCGGAUGCAGAGGCGGCAGCCUUCGGUGGCGCGAUAGCGCCAACGUUCUCAACUAUGACAUGCAAAACGCGUGCUCCGUUGAAUGGAGUCUACCAUG | -2.77
GGAUCUUCUCGAUCUAACAAAAAAGACAAAUCUGCCACAAAGCUUGAGAGCAUCUUCGGAUGCAGAGGCGGCAGCCUUCGGUGGCGCGAUAGCGCCAACGUUCUCAACUAUGACAUGCAAAACGCGUGCUCCGUUGAAUGGAGUUUAUCACG | -4.04
GGAUCUUCUCGAUCUAACAAAAAAGACAAAUCUGCCACAAAGCUUGAGAGCAUCUUCGGAUGCAGAGGCGGCAGCCUUCGGUGGCGCGAUAGCGCCAACGUUCUCAACUAUGACACUCAAAACGCGUGCUCCGUUGAAUGGAGUUUAUCAUG | -0.0156
GGAUCUUCUCGAUCUAACAAAAAAGACAAAUCUGCCACAAAGCUUGAGAGCAUCUUCGGAUGCAGAGGCGGCAGCCUUCGGUGGCGCGAUAGCGCCAACGUUCUCAACUAUGACACACAAAACGCGUGCUCCGUUGAAUGGAGUUUAUCAUG | 0.231
GGAUCUUCUCGAUCUAACAAAAAAGACAAAUCUGCCACAAAGCUUGAGAGCAUCUUCGGAUGCAGAGGCGGCAGCCUUCGGUGGCGCGAUAGCGCCAACGUUCUCAACUAUGACACCCAAAACGCGUGCUCCGUUGAAUGGAGUUUAUCAUG | 0.422
GGAUCUUCUCGAUCUAACAAAAAAGACAAAUCUGCCACAAAGCUUGAGAGCAUCUUCGGAUGCAGAGGCGGCAGCCUUCGGUGGCGCGAUAGCGCCAACGUUCUCAACUAUGACACUCAAAACGCGUGCUCCGUUGAAUGGAAUUUAUCAUG | -0.982
GGAUCUUCUCGAUCUAACAAAAAAGACAAAUCUGCCACAAAGCUUGAGAGCAUCUUCGGAUGCAGAGGCGGCAGCCUUCGGUGGCGCGAUAGCGCCAACGUUCUCAACUAUGACACGUUAAACGCGUGCUCCGUUGAAUGGAGUUUAUCAUG | -0.842
GGAUCUUCUCGAUCUAACAAAAAAGACAAAUCUGCCACAAAGCUUGAGAGCAUCUUCGGAUGCAGAGGCGGCAGCCUUCGGUGGCGCGAUAGCGCCAACGUUCUCAACUAUGACUCGAAAAACGCGUGCUCCGUUGAAUGGAGUUUAUCAUG | -1.83

Variant | polymerase ribozyme fitness (log ratio)
GGAUCUUCUCGAUCUAACAAAAAAGACAAAUCUGCCACAAAGCUUGAGAGCAUCUUCGGAUGCAGAGGCGGCAGCCUUCGGUGGCGCGAUAGCGCCAACGUUCUCAACUAUGACGCGCAAAACGCGUGCUCCGUUGAAUGGAGUUAAUCAUG | -1.38
GGAUCUUCUCGAUCUAACAAAAAAGACAAAUCUGCCACAAAGCUUGAGAGCAUCUUCGGAUGCAGAGGCGGCAGCCUUCGGUGGCGCGAUAGCGCCAACGUUCUCAACUAUGACAUGCAAAACGCGUGCUCCGUUGAAUGUAGUUUAUCAUG | 1.29
GGAUCUUCUCGAUCUAACAAAAAAGACAAAUCUGCCACAAAGCUUGAGAGCAUCUUCGGAUGCAGAGGCGGCAGCCUUCGGUGGCGCGAUAGCGCCAACGUUCUCAACUAUGACAUGCAAAACGCGUGCUCCGUUGAAUGGAGUUAAUCAUG | -0.753
GGAUCUUCUCGAUCUAACAAAAAAGACAAAUCUGCCACAAAGCUUGAGAGCAUCUUCGGAUGCAGAGGCGGCAGCCUUCGGUGGCGCGAUAGCGCCAACGUUCUCAACUAUGAUACGCAAAACGCGUGCUCCGUUGCAUGGAGUUUAUCAUG | -3.52
GGAUCUUCUCGAUCUAACAAAAAAGACAAAUCUGCCACAAAGCUUGAGAGCAUCUUCGGAUGCAGAGGCGGCAGCCUUCGGUGGCGCGAUAGCGCCAACGUUCUCAACUAUGACACUCAAAACGCGUGCUCCGUCGAAUGGAGUUUAUCAUG | -2.36
GGAUCUUCUCGAUCUAACAAAAAAGACAAAUCUGCCACAAAGCUUGAGAGCAUCUUCGGAUGCAGAGGCGGCAGCCUUCGGUGGCGCGAUAGCGCCAACGUUCUCAACUAUGUCACUCAAAACGCGUGCUCCGUUGAAUGGAGUUUAUCAUG | -2.07
GGAUCUUCUCGAUCUAACAAAAAAGACAAAUCUGCCACAAAGCUUGAGAGCAUCUUCGGAUGCAGAGGCGGCAGCCUUCGGUGGCGCGAUAGCGCCAACGUUCUCAACUAUAACACGCAAAACGCGUGCUCCGUUGAAUGGAGUUUACCAUG | -4.13
GGAUCUUCUCGAUCUAACAAAAAAGACAAAUCUGCCACAAAGCUUGAGAGCAUCUUCGGAUGCAGAGGCGGCAGCCUUCGGUGGCGCGAUAGCGCCAACGUUCUCAACUAUGACACGGAAAACGCGUGCUCCGUUGAAUGGGGUUUAUCAUG | -1.54
GGAUCUUCUCGAUCUAACAAAAAAGACAAAUCUGCCACAAAGCUUGAGAGCAUCUUCGGAUGCAGAGGCGGCAGCCUUCGGUGGCGCGAUAGCGCCAACGUUCUCAACUAUGACCCGCAAAACUCGUGCUCCGUUGAAUGGAGGUUAUCAUG | -3.11
GGAUCUUCUCGAUCUAACAAAAAAGACAAAUCUGCCACAAAGCUUGAGAGCAUCUUCGGAUGCAGAGGCGGCAGCCUUCGGUGGCGCGAUAGCGCCAACGUUCUCAACUAUGGCACGCAAAACGCGUGCUCCGUUGAAUGGAGUUUCUCAUG | -2.73
GGAUCUUCUCGAUCUAACAAAAAAGACAAAUCUGCCACAAAGCUUGAGAGCAUCUUCGGAUGCAGAGGCGGCAGCCUUCGGUGGCGCGAUAGCGCCAACGUUCUCAACUAUGACACGGAAAACGCGUGCUCCGUUGAAUGGAGUUUAUCAUG | -1.01
GGAUCUUCUCGAUCUAACAAAAAAGACAAAUCUGCCACAAAGCUUGAGAGCAUCUUCGGAUGCAGAGGCGGCAGCCUUCGGUGGCGCGAUAGCGCCAACGUUCUCAACUAUGACACGUAAAACGCGUGCUCCGUUGAAUGGAGUUUAUCAUG | -0.256
GGAUCUUCUCGAUCUAACAAAAAAGACAAAUCUGCCACAAAGCUUGAGAGCAUCUUCGGAUGCAGAGGCGGCAGCCUUCGGUGGCGCGAUAGCGCCAACGUUCUCAACUAUGACACGAAAAACGCGUGCUCCGUUGAAUGGAGUUUAUCAUG | -0.751
GGAUCUUCUCGAUCUAACAAAAAAGACAAAUCUGCCACAAAGCUUGAGAGCAUCUUCGGAUGCAGAGGCGGCAGCCUUCGGUGGCGCGAUAGCGCCAACGUUCUCAACUAUGCCACGCAAAACGCGUGCUCCGUUGAAUGGAGUUUACCAUG | -3.73
GGAUCUUCUCGAUCUAACAAAAAAGACAAAUCUGCCACAAAGCUUGAGAGCAUCUUCGGAUGCAGAGGCGGCAGCCUUCGGUGGCGCGAUAGCGCCAACGUUCUCAACUAUGAUACGCAAAACGCGUGCUCCGUUGAAUGGAGUUUAUCACG | ≤ -4.2
GGAUCUUCUCGAUCUAACAAAAAAGACAAAUCUGCCACAAAGCUUGAGAGCAUCUUCGGAUGCAGAGGCGGCAGCCUUCGGUGGCGCGAUAGCGCCAACGUUCUCAACUAUGAUACGCAAAACGCGUGCUCCGUUGAAUGGAGUUUAUCAGG | -4.08
GGAUCUUCUCGAUCUAACAAAAAAGACAAAUCUGCCACAAAGCUUGAGAGCAUCUUCGGAUGCAGAGGCGGCAGCCUUCGGUGGCGCGAUAGCGCCAACGUUCUCAACUAUGACAAGCAAAACGCGUGCUCCGUUGAAUGGCGUUUAUCAUG | -3.92
GGAUCUUCUCGAUCUAACAAAAAAGACAAAUCUGCCACAAAGCUUGAGAGCAUCUUCGGAUGCAGAGGCGGCAGCCUUCGGUGGCGCGAUAGCGCCAACGUUCUCAACUAUGACUCGCAAAACGCGUGCUCCGUUAAAUGGAGUUUAUCAUG | -1.18
GGAUCUUCUCGAUCUAACAAAAAAGACAAAUCUGCCACAAAGCUUGAGAGCAUCUUCGGAUGCAGAGGCGGCAGCCUUCGGUGGCGCGAUAGCGCCAACGUUCUCAACUAUGAGACGCAAAACCCGUGCUCCGUUGAAUGGAGUUUAUCAUG | -4.13
